Experimental data published in IntAct's records for PubMed 20498086.

B1: Nuclear pore complex protein Nup98-Nup96 (Homo sapiens), P52948 (parent)
chain: MFNKSFGTPFGGGTGGFGTTSTFGQNTGFGTTSGGAFGTSAFGSSNNTGGLFGNSQTKPGGLFGTSSFSQPATSTSTGFGFGTSTGTANTLFGTASTGTSLFSSQNNAFAQNKPTGFGNFGTSTSSGGLFGTTNTTSNPFGSTSGSLFGPSSFTAAPTGTTIKFNPPTGTDTMVKAGVSTNISTKHQCITAMKEYESKSLEELRLEDYQANRKGPQNQVGAGTTTGLFGSSPATSSATGLFSSSTTNSGFAYGQNKTAFGTSTTGFGTNPGGLFGQQNQQTTSLFSKPFGQATTTQNTGFSFGNTSTIGQPSTNTMGLFGVTQASQPGGLFGTATNTSTGTAFGTGTGLFGQTNTGFGAVGSTLFGNNKLTTFGSSTTSAPSFGTTSGGLFGNKPTLTLGTNTNTSNFGFGTNTSGNSIFGSKPAPGTLGTGLGAGFGTALGAGQASLFGNNQPKIGGPLGTGAFGAPGFNTTTATLGFGAPQAPVALTDPNASAAQQAVLQQHINSLTYSPFGDSPLFRNPMSDPKKKEERLKPTNPAAQKALTTPTHYKLTPRPATRVRPKALQTTGTAKSHLFDGLDDDEPSLANGAFMPKKSIKKLVLKNLNNSNLFSPVNRDSENLASPSEYPENGERFSFLSKPVDENHQQDGDEDSLVSHFYTNPIAKPIPQTPESAGNKHSNSNSVDDTIVALNMRAALRNGLEGSSEETSFHDESLQDDREEIENNSYHMHPAGIILTKVGYYTIPSMDDLAKITNEKGECIVSDFTIGRKGYGSIYFEGDVNLTNLNLDDIVHIRRKEVVVYLDDNQKPPVGEGLNRKAEVTLDGVWPTDKTSRCLIKSPDRLADINYEGRLEAVSRKQGAQFKEYRPETGSWVFKVSHFSKYGLQDSDEEEEEHPSKTSTKKLKTAPLPPASQTTPLQMALNGKPAPPPQSQSPEVEQLGRVVELDSDMVDITQEPVLDTMLEESMPEDQEPVSASTHIASSLGINPHVLQIMKASLLTDEEDVDMALDQRFSRLPSKADTSQEICSPRLPISASHSSKTRSLVGGLLQSKFTSGAFLSPSVSVQECRTPRAASLMNIPSTSSWSVPPPLTSVFTMPSPAPEVPLKTVGTRRQLGLVPREKSVTYGKGKLLMDMALFMGRSFRVGWGPNWTLANSGEQLNGSHELENHQIADSMEFGFLPNPVAVKPLTESPFKVHLEKLSLRQRKPDEDMKLYQTPLELKLKHSTVHVDELCPLIVPNLGVAVIHDYADWVKEASGDLPEAQIVKHWSLTWTLCEALWGHLKELDSQLNEPREYIQILERRRAFSRWLSCTATPQIEEEVSLTQKNSPVEAVFSYLTGKRISEACSLAQQSGDHRLALLLSQFVGSQSVRELLTMQLVDWHQLQADSFIQDERLRIFALLAGKPVWQLSEKKQINVCSQLDWKRSLAIHLWYLLPPTASISRALSMYEEAFQNTSDSDRYACSPLPSYLEGSGCVIAEEQNSQTPLRDVCFHLLKLYSDRHYDLNQLLEPRSITADPLDYRLSWHLWEVLRALNYTHLSAQCEGVLQASYAGQLESEGLWEWAIFVLLHIDNSGIREKAVRELLTRHCQLLETPESWAKETFLTQKLRVPAKWIHEAKAVRAHMESDKHLEALCLFKAEHWNRCHKLIIRHLASDAIINENYDYLKGFLEDLAPPERSSLIQDWETSGLVYLDYIRVIEMLRHIQQVDCSGNDLEQLHIKVTSLCSRIEQIQCYSAKDRLAQSDMAKRVANLLRVVLSLHHPPDRTSDSTPDPQRVPLRLLAPHIGRLPMPEDYAMDELRSLTQSYLRELAVGSL
partner: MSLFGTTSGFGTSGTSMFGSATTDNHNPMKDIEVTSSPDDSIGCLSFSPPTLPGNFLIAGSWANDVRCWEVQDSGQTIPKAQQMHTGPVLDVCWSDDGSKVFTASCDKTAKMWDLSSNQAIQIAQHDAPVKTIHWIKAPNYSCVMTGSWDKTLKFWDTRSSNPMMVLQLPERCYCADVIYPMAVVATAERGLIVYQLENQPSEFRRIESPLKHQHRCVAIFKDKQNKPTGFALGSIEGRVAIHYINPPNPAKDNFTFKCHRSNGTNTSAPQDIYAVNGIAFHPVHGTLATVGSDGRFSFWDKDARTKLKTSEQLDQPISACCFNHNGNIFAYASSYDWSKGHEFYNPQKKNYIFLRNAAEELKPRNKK

Variants of: B1
Settings: with rae1l_human RAE1, P78406

effect of a mutation on the interaction | Variant
disrupting interaction | E201K;E202K
